Test results reported in the nanobody polyreactivity screen of Harvey et al. (2022).

Assay: yeast display, Sf9 membrane polyspecificity reagent, FACS + sequencing; frameworks hold sequencing errors
In short: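 After 36–48 hours of galactose induction, yeast (Saccharomyces cerevisiae BJ5465) displaying a synthetic nanobody library were stained at 4 °C for 1 hour with 10% biotinylated, detergent-solubilized Sf9 membrane reagent. Streptavidin microbeads enriched the stained cells before FACS sorting into low and high (top ~1%) gates on anti-HA and streptavidin fluorescence. Each clone's polyreactivity label reflects its gate of origin.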

| Sequence | polyreactivity (PSR sort gate) |
| --- | --- |
| QVQLVESGGGLVQAGGSLRVSCAAYGRIFLANAMGGYRTAAGKERELVAAISYSGGSTYYADSVKGRFTISRDNAKNTVYLQMNSLKPEDTAVYYCAADAFTWYTGRAWKYYYWGHGTQVTVSS | low polyreactivity |
| QVQLVESGGGLVQAGGSLRVSCADSGGIFALNDMGWYRQAPGKERELVAAINGAGTYYADSVKGRFTISRDNAKNTVYLQRNSLKPEDTAVYYCARGSLHWEYARTWTRVEYDYWGQGTQVTVSS | low polyreactivity |
| QVQLVESGGGLVQAGGSLRVSCAPSGGTFGYYTMGWYRQAPGTERELVAAISSGGGTDYADSVKGRFTISRDNAKNTVYLQMNSLKPEDTAVYYCNAKWLELHYVFLPSYTMDYWGHGTQVTVSS | low polyreactivity |
| QVQLVESGGGLVQAGGSLRVSCAPSGRTFRYNTMGWYRPAPGKERELVARITWSGGSTYYADSVKGRFTISRDNAKNTVYLQMNSLKPEDTAVSYCAAGSGWRFDYWGQGTQVTVSS | low polyreactivity |
| QVQLVESGGGLVQAGGSLRVSCASSGFTFVYYAMVWYRQAPGKERELVATISGNGGRTYYADSVKGRFTISRDNAKNTVYLLMHSLKPEDTAVYYSAALLYIRSVGDDYWGQGTKVTVSS | low polyreactivity |
| QVQLVESGGGLVQAGGSLSLICAASGFIFYYYAMGWYRQAPGKERELVAGMSRRGGSTYYADSVKGRFTISRDNAKNTVYLQMNSLKPEDTAVYYCAALGDDATSYGYWGQGTQVTVSS | high polyreactivity |
| QVQLVESGGGLVQAGGSLSLICAASGRFSNAMGWYIQAPGKERELVAAITLSGTSTYYADSVKGRFTISRDNAKNTVYLQMNSLKTEDTAVYYCAAGSGYGVTWVYSPYTGVDYWGQGTQVTVSS | low polyreactivity |
| QVQLVESGGGLVQAGGSLSLICAASGSIFYEYAMGWYRQAPGKEREFVAAISSSGGSTYYADSVKGRFTISRDNAKNTVYLQMNSLKPEYTAVYYCNAQVGGVSIEYDYWGQGTQVTVSS | low polyreactivity |
| QVQLVESGGGLVQAGGSLSLSCAASGFIFNYYVMGWYRQAPGKERELVATISWRGGRTYYADSVKGRFTISRDNAKNTVYLQMNSLKPEDTAVYYCAKDSYYFTRYDYWGQGTQVTVSS | low polyreactivity |
| QVQLVESGGGLVQAGGSLSLSCAASGFIFPGNAKGWYRQAPGKERELVATISSGGSTKYADSVKGRFTISRDNANNTVYLQMNSLKPEDTAVYYCAARVYLGVFDYYYWGQGTQVTVSS | low polyreactivity |
| QVQLVESGGGLVQAGGSLSLSCAASGFIFYGYAMGWYRQAPGKEREIVAAISGRGDRTYYADSVKGRFTISRDNAKNTVYLQMNSLNPEDTAVYYCAALQLRYSGALWYDYWGQGTQVTVSS | high polyreactivity |
| QVQLVESGGGLVQAGGSLSLSCAASGFILDYNTKGWYRQAPGKEREVVAAISSSGDTTYYADSVKGRFTISRDNAKYTVYLQMNSLKPEDTAVYYCAREYGDGYEYWVQGTQVTVSS | low polyreactivity |
| QVQLVESGGGLVQAGGSLSLSCAASGFTFAKYAMGWYRQAPGKERELVATISWSGGTTSYADSVKGRFTISRDNAKNTVYLQMNSLKPEDTAVYYCAALRYADYDYWGQGTQVTVSS | high polyreactivity |
| QVQLVESGGGLVQAGGSLSLSCAASGFTFGTNAMGWYRQAPGKERELVAAISSRGGSTYYADSVKGRFTISRDNAKNTVYLEMNSLKPEDTAVYYCARRVAGRQHEYGYWGLGTQVTVSS | high polyreactivity |
| QVQLVESGGGLVQAGGSLSLSCAASGFTFSRYAMGWYRQAPGKERELVAAISDDGGSTYYADSVKGRFTISRDNAKNTVYLQMNSLKPEDTAVYYCAARFYWSYGYWGQGTQVTVSS | high polyreactivity |
| QVQLVESGGGLVQAGGSLSLSCAASGGTFSRYGMGWYRQAPGKEREMVAAISRSGGSTYYADSVKWRFTISRDNAKNTVYLQMNSLKPEDTAVYYCAAKLPIPYTTGRYAAMDYWGQGTQVTVSS | high polyreactivity |

| Sequence | polyreactivity (PSR sort gate) |
| --- | --- |
| QVQLVESGGGLVQAGGSLSLSCAASGGTFTFYAMGWYRQAPGKERELVATINWSGGSTYYADSVKGRFTISRDNAKNTVYIQMNCLKPEDSAVYYCNAAWAYKSVEYWGQGTQVTVSS | low polyreactivity |
| QVQLVESGGGLVQAGGSLSLSCAASGIIFIYYGMGWYRQAPGKERELVAAISRSGGRTYYADSVKGRFTISRDNAKNTVYLQMNSLKPEDTAVYYCATTYTPTGFDYWGQGTQVTVSS | high polyreactivity |
| QVQLVESGGGLVQAGGSLSLSCAASGIIFYDYAMGWYRQAPGKERELVAAITSGGSTNYADSVKGRFTISRDNAKNTVYLLMNRLKPEVTAVYYCAATYWSWISLRFYWGLGTQVTVSS | low polyreactivity |
| QVQLVESGGGLVQAGGSLSLSCAASGIIFYYYAMGWYRQAPGKERELVAAISTSGGRTYYADSVKGRFTISRDNAKNTVYLQMNSMKPEDTAVYYCAADYLKGEEDYWGQGTQVTVSS | low polyreactivity |
| QVQLVESGGGLVQAGGSLSLSCAASGIIIRRYAMGWYRQAPRKERELVATITWSGGSTYYADSVKGRFTISRDNAKNTVYLQMNSLKPEDTAVDYCAKLTSYRGRYNYWGQGTQVTVSS | high polyreactivity |
| QVQLVESGGGLVQAGGSLSLSCAASGIISTYYVMGWYRQAPGKERELVAAITGGDSSTYYADSVKGRFTISRDNAKNTVYLQMNSLKPEDTAVYYCAKEYYYARGARYDYWGQGTQVTVSS | low polyreactivity |
| QVQLVESGGGLVQAGGSLSLSCAASGNIVPSYVMGWYRQAPGKERELVAAITWNGGSTYYADSVKGRFTISRDNAKNTVYLQMNSLKPEDTAVYDCATSGPRLLRYYSSSSPSYDYWGQGTQVTVSS | low polyreactivity |
| QVQLVESGGGLVQAGGSLSLSCAASGRIFATNAMGWYRQAPGKERELVATITRSDGRTYYAVSVKGRFTISRDNAMNSVYLEMNSLKPEDTAVYFCAAYYSDTEPGYREYDYWGQGTQVTLSS | low polyreactivity |
| QVQLVESGGGLVQAGGSLSLSCAASGRIFRYNAMGWYRQAPGKERELVAGINGRSGSTTYADSVKGRFTISRDNAKNTVYLQMNSLKPEDTAVYYCAIVYGGYHYAFRSSRGMGYWGQGTQVTVSS | high polyreactivity |
| QVQLVESGGGLVQAGGSLSLSCAASGRLFARNTMGWYRQAPGKEREFVAAIDRRGGSTYYADSVKGRFTISRDNAKNTVYLQMNSLKPEDTAVYYCNKDTRRSGRMDSWGQGTEVTVSS | low polyreactivity |
| QVQLVESGGGLVQAGGSLSLSCAASGRNFYANTMGWYRQAPGKERELVASISYSSGSTYADSVKGRFTISRDNAKNTVYLQMNSLKPEDTAVYYCAARTYWYPRRPIYDYWGQGTQVTVSS | high polyreactivity |
| QVQLVESGGGLVQAGGSLSLSCAASGRTFGPYAMGWYRKAPGKERELVAVISGRGTSTYYADSVKGRFTISRDNAKNTVYLQMNSLKPEDTAVYYCNADYGSWYWGFDYWGQGTQVTVSS | low polyreactivity |
| QVQLVESGGGLVQAGGSLSLSCAASGRTFSSYVMGWYRPAPGNERELVAAITQSSSRTYYADSVKGRFTISRDNAKNTVYLQMNSLKRVYTAVYYCNAALYPYLQYYYWGLGTQVTVSS | low polyreactivity |
| QVQLVESGGGLVQAGGSLSLSCAASGRTLIRNAMGWYRQAPGKGRELVAAINSGGITNYADSVKGRFTISRDNAKNTVYLQMNSLKPEDTAVYYCNDRQVLYGLYLRAYPYEYWGQGTQVTVSS | low polyreactivity |
| QVQLVESGGGLVQAGGSLSLSCAASGSIFWSYAMGWYRQAPGKERELVAAITTDGGTNYADSVKGRFTISRDNAKNTVYLQMNSLKPVDTAVYYCAADTDPKPRIDYTLRMDYWGHGTQVTVSS | low polyreactivity |
